Biological target: T1, recombinant human (rh) CD16A protein conjugated with APC fluorophore (human, UniProt P08637 17-208, APC fluorophore conjugate)
T1 construct: also called APC-tagged rhCD16A
Assay: 'sandwich' flow cytometry: NB-EBC1 cells incubated with cSN, then stained with APC-conjugated rhCD16A
Procedure: FIGS. 3A-E. Production and binding characterization of BICEs. (FIG. 3A) Flow cytometry histograms showing His-tag cell surface expression in neuroblastoma cells incubated with concentrated supernatants (cSNs) from CAR constructs (CAR.GPC2, CAR.GPC2-BiCE.GD2 or CAR.GPC2-BICE.CD19) or 1×PBS and then stained with phycoerythrin (PE)-tagged anti-His-tag antibody. Neuroblastoma cells with high (NB-EBC1 and SMS-SAN) and low (SY5Y) GD2 expression were selected. Leukemia (NALM6) cells with high CD19 were utilized as controls. (FIG. 3B) Concentration-dependent binding of CAR.GPC2-BICE.GD2 cSN in GD2-high NB-EBC1 cells. (FIG. 3C) Binding competition assay between FDA-approved anti-GD2 antibody dinutuximab and CAR.GPC2-BiCE.GD2 cSNs. (FIG. 3D) Graphical scheme of the “sandwich” binding assays where GD2-expressing neuroblastoma cells were incubated with bicistronic vector cSNs and then stained with recombinant human (rh) CD16A protein previously conjugated with APC fluorophore. (FIG. 3E) Flow cytometry histograms showing CD16A sdAb APC staining in GD2-positive cells incubated with GPC2.CAR-GD2.BiCE cSN but not with control vector cSN (GPC2.CAR-CD19.BiCE).
Next, to study whether BiCEs might produce a molecular synapsis between GD2-expressing cells and CD16a, a “sandwich” binding assay was developed as illustrated in FIG. 3D. […]

T1 sequence (P08637 17-208 limits assumed): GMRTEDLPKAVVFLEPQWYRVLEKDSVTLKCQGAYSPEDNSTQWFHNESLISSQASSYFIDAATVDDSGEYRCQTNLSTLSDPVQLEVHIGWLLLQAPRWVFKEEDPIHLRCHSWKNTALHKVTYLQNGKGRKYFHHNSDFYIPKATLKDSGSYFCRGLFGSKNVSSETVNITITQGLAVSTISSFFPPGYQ

binding result: binds
B1: GD2-targeted bispecific innate immune cell engager (GD2 scFv 14g2a linked to CD16A single-domain antibody sdA1, His-tagged) (bispecific antibody)
chain: DILLTQTPLSLPVSLGDQASISCRSSQSLVHRNGNTYLHWYLQKPGQSPKLLIHKVSNRFSGVPDRFSGSGSGTDFTLKISRVEAEDLGVYFCSQSTHVPPLTFGAGTKLELKGSTSGSGKPGSGEGSTKGEVKLQQSGPSLVEPGASVMISCKASGSSFTGYNMNWVRQNIGKSLEWIGAIDPYYGGTSYNQKFKGRATLTVDKSSSTAYMHLKSLTSEDSAVYYCVSGMEYWGQGTSVTVSSGSTSGSGKPGSGEGSTKGEVQLVESGGGLVQPGGSLRLSCAASGFTFSNYGMSWVRQAPGKGLEWIGSIYYSGSTNYNPSLKSLVTISRDNSKNTLYLQMNSLRAEDTATYYCARESIDYWGQGTLVTVSSHHHHHH
notes: Used as concentrated supernatant (cSN) of HEK 293T cells transfected with the bicistronic GPC2.CAR-GD2.BiCE vector; also called GD2 BiCE; GD2.BiCE
